According to paper PMC4242493, “Sequence specificity incompletely defines the genome-wide occupancy of Myc”:

Legend:
[1] = target: T1, Myc;MaxL (Homo sapiens;Homo sapiens, UniProt P01106-1;P61244 1-439;1-160, |); assay: EMSA; 0.01 nM probe; EMSA: 25 mM HEPES pH 7.6, 100 mM KCl, 1 mM DTT, 0.1 mM EDTA, 0.01% Triton, 30 min at room temperature; 6% polyacrylamide gel in 0.5X Tris/glycine; details: protein: recombinant;recombinant, tags: C-terminal His-tag (pET21a);C-terminal His-tag (pET21a), copies: 1;1
[2] = target: MaxL (human? (HeLa cDNA), UniProt P61244 1-160); assay: EMSA; 0.01 nM probe; MaxL homodimer; EMSA: 25 mM HEPES pH 7.6, 100 mM KCl, 1 mM DTT, 0.1 mM EDTA, 0.01% Triton, 30 min at room temperature; 6% polyacrylamide gel in 0.5X Tris/glycine; details: protein: recombinant; tags: C-terminal His-tag (pET21a); chain copies: 2; unlabeled in silver-stained EMSA
[3] = target: Myc;MaxS (human? (HeLa cDNA);human? (HeLa cDNA), UniProt P01106-1;P61244-2 1-439;1-151, |); assay: EMSA; stoichiometric, 125 nM, silver stain; EMSA: 25 mM HEPES pH 7.6, 100 mM KCl, 1 mM DTT, 0.1 mM EDTA, 0.01% Triton, 30 min at room temperature; 6% polyacrylamide gel in 0.5X Tris/glycine; details: protein: recombinant;recombinant; tags: C-terminal His-tag (pET21a);C-terminal His-tag (pET21a); copies: 1;1; label: unlabeled
[4] = target: T1, Myc;MaxL; assay: as above; details: protein: recombinant;recombinant; tags: C-terminal His-tag (pET21a);C-terminal His-tag (pET21a); copies: 1;1; label: unlabeled

T1 sequence (P01106 16-454, chain 1 of 2): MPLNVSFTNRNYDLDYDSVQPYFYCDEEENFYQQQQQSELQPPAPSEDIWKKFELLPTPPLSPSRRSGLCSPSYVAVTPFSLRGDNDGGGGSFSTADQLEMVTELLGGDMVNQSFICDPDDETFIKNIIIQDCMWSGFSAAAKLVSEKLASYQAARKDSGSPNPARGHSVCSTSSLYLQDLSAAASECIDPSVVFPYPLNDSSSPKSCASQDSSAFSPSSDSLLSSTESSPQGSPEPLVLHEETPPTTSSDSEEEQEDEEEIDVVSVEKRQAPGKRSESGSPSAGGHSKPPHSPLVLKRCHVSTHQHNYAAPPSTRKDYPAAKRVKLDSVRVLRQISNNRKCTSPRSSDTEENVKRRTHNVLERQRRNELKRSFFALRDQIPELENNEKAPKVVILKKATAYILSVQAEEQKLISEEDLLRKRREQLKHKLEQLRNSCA
T1 sequence (P61244 whole entry, chain 2 of 2): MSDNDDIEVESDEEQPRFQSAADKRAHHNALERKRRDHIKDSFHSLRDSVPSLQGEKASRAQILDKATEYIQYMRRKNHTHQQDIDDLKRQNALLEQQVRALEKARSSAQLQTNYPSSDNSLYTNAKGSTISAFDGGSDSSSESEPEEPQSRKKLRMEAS
Sequence of MaxL (P61244 whole entry): as the sequence (P61244 whole entry, chain 2 of 2) above
Sequence of Myc;MaxS (P01106 16-454, chain 1 of 2): as the sequence (P01106 16-454, chain 1 of 2) above
Sequence of Myc;MaxS (P61244 other isoform, or with tags, fused parts or gaps |, chain 2 of 2): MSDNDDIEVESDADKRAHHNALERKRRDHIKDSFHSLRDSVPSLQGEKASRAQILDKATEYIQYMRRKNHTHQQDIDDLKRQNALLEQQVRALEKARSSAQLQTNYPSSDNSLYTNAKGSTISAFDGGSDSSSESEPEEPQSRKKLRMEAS

B1: ATCTAG probe (26 bp) (dsDNA)
DNA 1: GAGGGATCGGATCTAGGGATCGGAGG
DNA 2: CCTCCGATCCCTAGATCCGATCCCTC
In the case of B1, the Kd ([1]; label: 32P 5' end-labeled on both strands (Kd)) is reported as 20 nM.

B2: CACGTG probe (26 bp) (dsDNA)
DNA 1: GAGGGATCGGCACGTGGGATCGGAGG
DNA 2: CCTCCGATCCCACGTGCCGATCCCTC
B2 gave a Kd [2] of 0.4 nM and a Kd ([1]; unlabeled in silver-stained EMSA) of 0.1 nM.

B3: GTGGTG probe (26 bp) (dsDNA)
DNA 1: GAGGGATCGGGTGGTGGGATCGGAGG
DNA 2: CCTCCGATCCCACCACCCGATCCCTC
B3: binds [3]; binds [4].
